The record followed here is publication PMC8636641.

For this data set, the system named is dTao (Drosophila melanogaster). The experiment in a line: fluorescence quenching (initial fluorescence, MST instrument). To be noted: inosine homopolymer strand; Pull-down: TAP buffer 50 mM Tris pH 7.5, 100 mM NaCl, 5% glycerol, 0.2% NP-40, 1.5 mM MgCl2, 60 min; quenching assay buffer not stated (dTao storage 20 mM Tris …).

One may read the Kd as the free concentration of one partner at which half of the binding sites on the other are occupied at equilibrium, for simple one-to-one binding. A higher Kd goes with lower affinity. In turn, FITC-poly(I:C) returned a Kd of 42 nM.
